Measurements as given in the supplement of paper PMC12042874.
± gives the uncertainty stated by the source.

Assay: amyloid nucleation score (Sup35N fusion, yeast selection) (log enrichment); library NNK3; higher = more nucleation; inactive = no reads after selection
In short: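 Output and input plasmid inserts were sequenced by Illumina after psi-negative yeast carrying Sup35N fused to peptides of 20 random codons had been induced 24 hours with 100 μM copper sulfate and grown 7 days at 30°C on medium lacking adenine and uracil. The nucleation score is the DiMSum log enrichment of output over input reads, centred on the mode score of non-aggregating sequences. Sequences with under 100 input reads were excluded.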

Substance	amyloid nucleation score
YYLSLHR	inactive
MCMSAFEGSSIICDCMVVLL	1.85 ± 0.088
VGLALRLCLAVLSDRKWILS	inactive
YTLVDRSICT	inactive
GGLCRGYQDMIMLWNMLQKQ	inactive
QNSGFWIRMH	-1.38 ± 2.4
HAMCHVVGTRISGYLCAYGT	inactive
INFSCLLLKHLFRWVRPYLS	inactive
SVYPVFPTLFNSSYFSGTFG	inactive
LPFCLN	inactive
PQADLVRFAMCRRAMNLVPW	inactive
FWMCVSVSARWAPTSLGFGS	inactive
PRLSAFVLRNYLRPKGYGGA	inactive
LNVSRGWLVNILPYGCNI	inactive
LVPIVVGKRFPIYVGVGPKG	inactive
GNEIGITGVYGLHRSAKVVV	inactive
STITYHLDIEVRKCWVFYMY	inactive
AAYGELL	inactive
SEGDLKYVW	inactive
LFRLKNRFEDKVGNSIRLWE	inactive
RCFYKRYNYLS	inactive
AFYVVLTNTVYVGWLQE	inactive

Substance	amyloid nucleation score
RPSCMFCPSHAMARLPPVGS	inactive
TFLALHNNQQLV	inactive
VRRHAF	inactive
VGYTNLVFGDLLLFCMFNWD	0.109 ± 0.45
MYGLLIKNSYRKRLDLSVSI	inactive
HMIRAVFLSCMSASILVTIK	-0.366 ± 0.53
FYFKR	inactive
SLGYHLYRHARVCYRMCDIW	inactive
NFSPHTFVSNSM	inactive
WSSFPFCSRVYVQTWIDLTN	1.52 ± 0.14
LVVNRDYFCRSVGPIVLLEP	inactive
GDVLLY	inactive
VWKMRDTKHMGLLWLLWFIE	inactive
GLEVLVISIGAWLSLTLSFQ	inactive
YVGLDVVPGVLGIGFILLYD	inactive
GDSFCFQLGVMCINHVRWY	1.78 ± 0.09
KVFFVRTIIKVRVAGCSVRV	inactive
AIMFLFLYTRGAYAYYLGLL	inactive
VAKHNAR	inactive
VNTATCYQ	inactive
LYCCTGEHGSLASVCSSTLT	-0.852 ± 1.5
LTSGVNRISQQPWLSLVDIG	inactive

Substance	amyloid nucleation score
VDKQPDLIAHRMWTKVG	inactive
FPHGVHPYS	inactive
FGEMRFCFCAG	inactive
EVCFIRLLLLYCR	inactive
YGTSATKRTALFWYDMTKFG	inactive
SKPLFMTNNVTMGTIWPHMG	inactive
LINKHNRVMYLAICA	inactive
MRLYLFSRYPLARTTFMSTC	inactive
PVISMHIVVLCGKQKKTMSP	0.594 ± 0.23
NCPQWDVCFTYLSSGRQRAD	inactive
RLLLSGSSVAICCGQLGLGF	2.11 ± 0.097
ASQSSVLPWNS	inactive
VMKHHALGLEEWPQYTSYAW	inactive
TRMDIESGYVLESYSRPSPM	inactive
NCVRSLCMLWTTFTCVNDLC	2.1 ± 0.079
SRMPCRFM	inactive
ILVLDSWYVACTTACKGTNK	-1.57 ± 2.5
GSWLNSYVELTCVFFGSFYM	inactive
ALFVGFRF	1.55 ± 0.12
SRCIFIIVIVSGSYGFSVSN	1.14 ± 0.13
TICRCRWGIRPYLALCIHYS	inactive
